Data published in patent US20160272937A1, “METHODS OF GENERATING INTERMEDIATE MESODERM CELLS FROM HUMAN PLURIPOTENT STEM CELLS” (THE BRIGHAM AND WOMEN'S HOSPITAL, INC., priority 2013, published 2016).

B1: activin A: human activin A (R&D systems) (protein, UniProt P08476 311-426, looked up)
Inhibin beta A chain: GLECDGKVNICCKKQFFVSFKDIGWNDWIIAPSGYHANYCEGECPSHIAGTSGSSLSFHSTVINHYRMRGHSPFANLKSCCVPTKLRPMSMLYYDDGQNIIKKDIQNMIVEECGCS
modifications: Inhibin beta A chain
B2: BMP-7: candidate growth factor screened for PAX2 induction (protein, UniProt P18075 293-431, looked up)
Bone morphogenetic protein 7: STGSKQRSQNRSKTPKNQEALRMANVAENSSSDQRQACKKHELYVSFRDLGWQDWIIAPEGYAAYYCEGECAFPLNSYMNATNHAIVQTLVHFINPETVPKPCCAPTQLNAISVLYFDDSSNVILKKYRNMVVRACGCH

Tests used:
Assay type in all cases: cell-based, human
CHIR-induced hPSCs [1] = assay: Growth factor screen for PAX2 induction in CHIR-induced mesendodermal cells (immunostaining); conditions: day 4
Experimental: For immunofluorescence studies, cultures are washed once with PBS (Invitrogen) and fixed in 4% paraformaldehyde for 15 min at room temperature (RT). Fixed cells are then washed three times in PBS and incubated in blocking buffer (0.3% Triton X-100 (Fisher Scientific) and 5% normal donkey serum (EMD Millipore) in PBS) for 1 hour at RT.
The cells are then incubated with primary antibody overnight at 4° C. or for 2 hours at RT in antibody dilution buffer (0.3% Triton X-100 and 1% BSA (Roche) in PBS). Cells are then washed three times in PBS and incubated with Alexa Fluor 488-, 555-, or 647-conjugated secondary antibodies (1:500) (Molecular Probes) in antibody dilution buffer for 1 hour at RT. For immunostaining with Biotinylated Lotus Tetragonolobus Lectin (LTL, Vector Labs), a Streptavidin/Biotin Blocking Kit (Vector Labs) and Alexa Fluor 488- or 647-conjugated Streptavidin (Molecular Probes) were used according to manufacturer's instructions.
Nuclei can be counterstained with DAPI (Sigma). […] Immunofluorescence is visualized using an inverted fluorescence microscope (Nikon Eclipse Ti, Tokyo, Japan). Quantification is performed by counting a minimum of five random fields at 10× magnification.
PAX2 is selected since it is an early marker of IM, and, unlike the markers OSR1 or LHX1 which are also expressed in the adjacent lateral plate mesoderm, PAX2 expression is restricted in mesoderm to the IM.

[2] = test system: hPSC-derived PAX2+LHX1+ cells; assay: SIX2 induction in PAX2+LHX1+ cells (cap mesenchyme differentiation, immunofluorescence); conditions: activin A 10 ng/ml added on day 3, 5 additional days
CHIR-induced hPSCs [3] = assay: Definitive endoderm differentiation of CHIR-induced hPSCs (SOX17/FOXA2 immunostaining)
Experimental: Mesendoderm differentiation—the media is changed to Advanced RPMI (A-RPMI, Invitrogen) supplemented with 1×L-glutamax and 1× penicillin/streptomycin and either CHIR99021 (CHIR, Stemgent), human Wnt3a (R&D systems), and/or human activin A (R&D systems) at the doses described. […] Hepatic differentiation—cells at the definitive endoderm stage are treated with A-RPMI+1×L-glu+1×P/S+1×B27 supplement (Invitrogen)+20 ng/mL BMP-4 (R&D systems)+10 ng/mL FGF2 (Invitrogen) for 5 days, then A-RPMI+1×L-glu+1×P/S+1×B27+10 ng/mL HGF for 5 days, then HCM Hepatocyte Culture Medium (Lonza) supplemented with 20 ng/mL Oncostatin M and 10 ng/mL HGF (Peprotech) for 5 days. Pancreatic differentiation—cells at the definitive endoderm stage are treated with DMEM/F12+2% FBS (Hyclone)+50 ng/mL FGF7 (R&D systems) for 2 days, then high-glucose DMEM (Mediatech)+1% B27+2 μM retinoic acid (Sigma)+0.25 μM KAAD cyclopamine (EMD Millipore)+100 ng/mL recombinant human Noggin (R&D systems) for 4 days, then high-glucose DMEM+1% B27+100 ng/mL Noggin+300 nM indolactam V (Stemgent)+1 μM ALK5 inhibitor II (Axxora) for 4 days. […]
(§1) Nuclei can be counterstained with DAPI (Sigma). […] Immunofluorescence is visualized using an inverted fluorescence microscope (Nikon Eclipse Ti, Tokyo, Japan). Quantification is performed by counting a minimum of five random fields at 10× magnification. […]

[4] = test system: hPSCs (hESC and hiPSC lines); assay: Intermediate mesoderm differentiation: PAX2/LHX1 immunostaining; conditions: BMP-7 added to FGF2 and RA after CHIR 36 hours, day 3
Experimental: Mesendoderm differentiation—the media is changed to Advanced RPMI (A-RPMI, Invitrogen) supplemented with 1×L-glutamax and 1× penicillin/streptomycin and either CHIR99021 (CHIR, Stemgent), human Wnt3a (R&D systems), and/or human activin A (R&D systems) at the doses described. Definitive endoderm differentiation—cells are treated with A-RPMI+1×L-glu+1×P/S+5 μM CHIR for 24 hours, then A-RPMI+1×Lglu+1×P/S+100 ng/mL of activin A for 2-3 days. Hepatic differentiation—cells at the definitive endoderm stage are treated with A-RPMI+1×L-glu+1×P/S+1×B27 supplement (Invitrogen)+20 ng/mL BMP-4 (R&D systems)+10 ng/mL FGF2 (Invitrogen) for 5 days, then A-RPMI+1×L-glu+1×P/S+1×B27+10 ng/mL HGF for 5 days, then HCM Hepatocyte Culture Medium (Lonza) supplemented with 20 ng/mL Oncostatin M and 10 ng/mL HGF (Peprotech) for 5 days. Pancreatic differentiation—cells at the definitive endoderm stage are treated with DMEM/F12+2% FBS (Hyclone)+50 ng/mL FGF7 (R&D systems) for 2 days, then high-glucose DMEM (Mediatech)+1% B27+2 μM retinoic acid (Sigma)+0.25 μM KAAD cyclopamine (EMD Millipore)+100 ng/mL recombinant human Noggin (R&D systems) for 4 days, then high-glucose DMEM+1% B27+100 ng/mL Noggin+300 nM indolactam V (Stemgent)+1 μM ALK5 inhibitor II (Axxora) for 4 days. Anterior foregut endoderm differentiation—cells at the definitive endoderm stage are treated with DMEM/F12+1×L-glu+1×B27+200 ng/mL Noggin+10 μM SB431542 (Stemgent) for 3 days. For hindgut endoderm differentiation, cells at the definitive endoderm stage were treated with A-RPMI+1×L-glu+1×P/S+2% FBS+500 ng/mL FGF4 (R&D systems)+5 μM CHIR for 4 days. […]
as §1

| Molecule | PAX2 expression (CHIR-induced hPSCs [1]; CHIR 24 hours then increasing doses of factor) | SIX2+ cells by immunofluorescence [2] | number of SOX17+ cells (CHIR-induced hPSCs [3]; activin A added after 48 hours of CHIR treatment, 4 days of differentiation) | efficiency of SOX17+FOXA2+ definitive endoderm generation (CHIR-induced hPSCs [3]; high doses of activin A after 24 hours of CHIR treatment, 2-3 days of subsequent differentiation) | PAX2 expression compared to vehicle control (CHIR-induced hPSCs [1]; CHIR 24 hours then low doses of factor) | expression of LHX1 [4] | percentage of cells expressing PAX2 [4] |
| --- | --- | --- | --- | --- | --- | --- | --- |
| B1 | no PAX2 expression | small populations of SIX2+ cells | markedly reduced | greater than 95% |  |  |  |
| B2 |  |  |  |  | modest increases | minimal effect | significantly decreased |
